As a reminder, the Km is the substrate concentration at which the rate is half of its maximum.

The data set concerns C[C@H](CCC[C@@H](C)[C@H]1CC[C@H]2[C@@H]3CCC4=CC(=O)CC[C@]4(C)[C@H]3CC[C@]12C)C(=O)SCCNC(=O)CCNC(=O)[C@H](O)C(C)(C)COP(=O)(O)OP(=O)(O)OC[C@H]1O[C@@H](n2cnc3c(N)ncnc32)[C@H](O)[C@@H]1OP(=O)(O)O. The data set is described as follows: purified protein. Particulars: pH 8.5; 25.0 °C.

Turning to “MCR (Rv1143) (Mycobacterium tuberculosis H37Rv)”, the Km came out at 6.5 ± 1.4 µM.

The values above are taken from paper PMC4600597.
